± gives the uncertainty stated by the source.

This data set can be described thus: amyloid nucleation score (Sup35N fusion, yeast selection) (log enrichment); library NNK2; higher = more nucleation; inactive = no reads after selection. The method in brief: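 The nucleation score, computed with DiMSum, is the log enrichment of output over input reads, centred on the mode score of non-aggregating sequences. Sequences with under 100 input reads were dropped. Reads were generated by Illumina sequencing of plasmid inserts from psi-negative yeast with Sup35N fused to peptides of 20 random codons, induced with 100 μM copper sulfate for 24 hours and grown 7 days at 30°C on medium lacking adenine and uracil.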
Consider KGPDITEHTITRGPEGNSRY, for which the amyloid nucleation score is -0.17 ± 0.65.

In turn, KGVLSGTWGGIRRIMTHVHD yielded an amyloid nucleation score of 0.004 ± 0.36.

KHCIIRFIKLGLGKKLKQPV registered an amyloid nucleation score of -1.02 ± 0.36.

In turn, KHFRREW returned an amyloid nucleation score of 1.35 ± 0.41.

On to KHIDVRSNVWTRPHSKWLWS, for which the amyloid nucleation score is 0.403 ± 0.2.

In turn, KHIKWKDCSG yielded an amyloid nucleation score of -0.091 ± 0.65.

For the substance KHILGQTWHSHCWFHTFEGV, the amyloid nucleation score came out at 2.26 ± 0.22.

Regarding KIERC, the amyloid nucleation score is -0.077 ± 0.63.

KIFFGNNRF yielded an amyloid nucleation score of 3.4 ± 0.13.

KIINNSANGNIYVVNRVLTL displayed an amyloid nucleation score of 8.174 ± 0.046.

For KILGWT, the amyloid nucleation score worked out at 0.836 ± 0.21.

KINMLCFSWGSCVGGCRKVC: the amyloid nucleation score is 7.063 ± 0.055.

Take KISVWGYRFLDRH: the amyloid nucleation score is 0.072 ± 0.21.

Substance KIVCDPGCIFMPFLCVCLLW gave an amyloid nucleation score of 6.07 ± 0.082.

Consider KKAVSACPLEYSVVINISGG, for which the amyloid nucleation score was 7.985 ± 0.026.

KLAYCYSSYSHHD showed an amyloid nucleation score of 0.316 ± 0.65.

The substance KLDWSNRLCSLNFECSCQLL registered an amyloid nucleation score of 3.78 ± 0.094.

In turn, KLFSYPIWWSRYCRMGRHRC showed an amyloid nucleation score of 0.374 ± 0.28.

The substance KLIYSSYVGSFLMELRWVCD came in with an amyloid nucleation score of 1.74 ± 0.17.

Substance KLKRHL came in with an amyloid nucleation score of -0.3 ± 0.24.

As to KLQRTGLYCYLY, the amyloid nucleation score was -0.912 ± 0.42.

As for KLSGC, the amyloid nucleation score is 0.265 ± 1.1.

The substance KLSYFAFFRSVDGLR returned an amyloid nucleation score of 0.508 ± 0.53.

For the substance KLYSQTVSANLGVGWSSS, the amyloid nucleation score amounted to 2.12 ± 0.15.

As for KMFVILIIHTLLGAITAVCG, the amyloid nucleation score was determined as 0.186 ± 0.76.

In the case of KMMTSSFRMDGVNSTLIWLI, the amyloid nucleation score was -0.08 ± 1.

Take KMRDGFISLVKCEYVGGFGC: the amyloid nucleation score was -0.856 ± 0.76.

The substance KMTRLLFYWSFGCGLIHLVC showed an amyloid nucleation score of -0.464 ± 1.1.

Regarding KMWIRLLRSEIPKCVGLTVS, the amyloid nucleation score turned out to be 0.66 ± 0.23.

With KNFQEHYVFLRARRLKLLSY, the amyloid nucleation score was -0.095 ± 0.8.

KNGQYDGTGDNSLLGPDGFI showed an amyloid nucleation score of 3.44 ± 0.075.

KNILGGDSFWFLLYGYHLFI: the amyloid nucleation score entry was “inactive”.

For KNINWILNAGSMLVSFYRPW, the amyloid nucleation score was 7.328 ± 0.065.

The substance KNIPFRMYWS returned an amyloid nucleation score of 2.6 ± 0.075.

Consider KNKSFNMACPVLVYGGFLIR, for which the amyloid nucleation score result was “inactive”.

KNLRWCQGFSRGIECRSLMV: the amyloid nucleation score was -0.639 ± 0.55.

As for KPCSGIRVCIDLCYPP, the amyloid nucleation score stood at 0.383 ± 0.74.

KPHGGGSRLGCRGKWLTILL: the amyloid nucleation score is 1.29 ± 0.32.

Regarding KPIIGGVSTERSLVIAGVHL, the amyloid nucleation score was 0.011 ± 0.79.

In turn, KPWFVVDRKNFRSNSAPWLG had an amyloid nucleation score of 0.073 ± 0.29.

Substance KQHVRMYWIAALAPMSGRGW displayed an amyloid nucleation score of 4.448 ± 0.042.

Substance KQIVFSANFDHRGGLVVLRW gave an amyloid nucleation score of 3.08 ± 0.073.

In turn, KQLRSSVSSSYYHGNTVCAE returned an amyloid nucleation score of 0.794 ± 0.39.

Turning to KQMFRQFLCGNVYNWRYMRA, the amyloid nucleation score is 0.298 ± 0.56.

In turn, KQPLYCHDWFHLCGSDSTSF returned an amyloid nucleation score of 2.75 ± 0.16.

Turning to KRGMRRKGDFTERKVETLVG, the amyloid nucleation score was found to be 2.39 ± 0.11.

Take KRILS: the amyloid nucleation score was -0.13 ± 0.34.

On to KRLCYVSYWIYSYSRDGELK, for which the amyloid nucleation score is -1.23 ± 1.1.

As for KRLTPS, the amyloid nucleation score worked out at 0.155 ± 1.1.

In the case of KRNDCLFGRVALCGMFRLSA, the amyloid nucleation score was 0.198 ± 0.5.

Substance KRNVLLLYYSCSAICSRYVV returned an amyloid nucleation score of -0.22 ± 0.63.

Substance KRRKSSTTVSKVGTGLEWMG returned an amyloid nucleation score of 0.874 ± 0.15.

Regarding KRRSNSTILGPINSPRVAEG, the amyloid nucleation score was -0.258 ± 0.42.

Substance KRSLIINGAATT yielded an amyloid nucleation score of 1.61 ± 0.26.

For the substance KRSVVKNLG, the amyloid nucleation score came to 0.157 ± 0.29.

Consider KSAYIGASNHAEIRHQSLSS, for which the amyloid nucleation score was determined as 0.253 ± 0.24.

Consider KSETAVRVNGYGAKIQE, for which the amyloid nucleation score is -0.224 ± 0.79.

In turn, KSFIGWLYMDTEYHWMYQPW registered an amyloid nucleation score of 0.27 ± 0.28.

Take KSRLGCTWSGAHQSIRPLRR: the amyloid nucleation score stood at 1.22 ± 0.41.

Consider KSSDGPKAQV, for which the amyloid nucleation score was determined as 1.13 ± 0.16.

Turning to KSVWLKVGCQPPIRFEFCEM, the amyloid nucleation score stood at 0.037 ± 0.49.

As for KTFTWHIVRLYYKYPPMPKV, the amyloid nucleation score entry is “inactive”.

Turning to KTGESMVNPIARMWLR, the amyloid nucleation score was found to be 1.51 ± 0.17.

Regarding KTGYINCSIMDYMV, the amyloid nucleation score entry is “inactive”.

In the case of KTHIREVCEGVTIIHKWTWV, the amyloid nucleation score is -0.508 ± 0.63.

Consider KTRYALPVDQCYMKNRNMLV, for which the amyloid nucleation score amounted to 0.295 ± 0.51.

Turning to KVESVKHRQNKGFYCWLVRN, the amyloid nucleation score was -1.25 ± 0.75.

In turn, KVGDQLQLRTSATV came in with an amyloid nucleation score of 0.459 ± 0.22.

As to KVMGYGYA, the amyloid nucleation score is -1.02 ± 0.55.

For the substance KVRDCDIMAPNIMVRSLNRS, the amyloid nucleation score turned out to be 1.73 ± 0.16.

Substance KVRFHSL gave an amyloid nucleation score of 2.72 ± 0.11.

For KVRKYSEFSLQSQCDPLGRG, the amyloid nucleation score stood at 0.455 ± 0.5.

In turn, KVSWFVRIYMCEIRMRIGRS gave an amyloid nucleation score of 1.44 ± 0.33.

KVWECLEAGNFGVDMRWCDR came in with an amyloid nucleation score of 0.524 ± 0.31.

For KWIRDIRDLQTH, the amyloid nucleation score was -0.275 ± 0.65.

As for KWTFLRLILTMV, the amyloid nucleation score was -0.511 ± 0.56.

The substance KWVGQLTVVMWLKCNPFCFE came in with an amyloid nucleation score of 0.257 ± 0.64.

With KWVMRNIWDTYSKVGLQSST, the amyloid nucleation score was -0.206 ± 0.39.

KYCHLWCEKGMELSALSEAV showed an amyloid nucleation score of 0.001 ± 0.76.

In turn, KYGDNSMYLMLLMVCYKGAC returned an amyloid nucleation score of -0.622 ± 1.1.

As for KYGTSIVTHGAVKDAKYCCR, the amyloid nucleation score was 3.44 ± 0.062.

As to KYHRI, the amyloid nucleation score is -0.721 ± 0.74.

The substance KYLRVDMVNMNAYKGHWEGS gave an amyloid nucleation score of 0.526 ± 0.66.

KYNDGEFIVVIVGILAYAVV had an amyloid nucleation score of -0.238 ± 0.34.

Turning to LADTVIMGLGSTLFVYVYLI, the amyloid nucleation score is 3.88 ± 0.077.

In turn, LAGLALITIIDIFGDNGRMI gave an amyloid nucleation score of 3.2 ± 0.082.

In the case of LAIVQ, the amyloid nucleation score was -0.256 ± 0.42.

The substance LANYYTDSVRPSCGY came in with an amyloid nucleation score of -0.022 ± 0.55.

For LAPLNSWKTY, the amyloid nucleation score is -0.045 ± 0.56.

In turn, LARACKIEAYFLLVHVSIMC came in with an amyloid nucleation score of -0.174 ± 0.76.

Take LASFGLRGVRQCQMNAE: the amyloid nucleation score turned out to be 1.78 ± 0.15.

Regarding LASPGTRFSFGSLVACGVVQ, the amyloid nucleation score is -0.178 ± 0.35.

The substance LAWITKSMFLL yielded an amyloid nucleation score of 0.672 ± 0.56.

As to LAWLCRWGSVTYYCYSFGQV, the amyloid nucleation score was -0.841 ± 0.62.

In turn, LCACIELSNKMLLTFNSNVK gave an amyloid nucleation score of -0.517 ± 0.32.

As to LCCGLFFFVRVY, the amyloid nucleation score amounted to 2.06 ± 0.091.

The substance LCCVVEN came in with an amyloid nucleation score of -0.603 ± 0.42.

Consider LCFQVVMPWNNISLSFLWLG, for which the amyloid nucleation score came out at 0.759 ± 0.52.

In turn, LCFSVNLARNLWLDNWVGGR had an amyloid nucleation score of 6.12 ± 0.084.

On to LCGAILIIVHYYG, for which the amyloid nucleation score was determined as 5.446 ± 0.047.

For the substance LCGFTIPSNVSLGRR, the amyloid nucleation score was found to be 4 ± 0.11.

As to LCILTRTYSAQA, the amyloid nucleation score was -0.238 ± 0.49.

LCISIRD yielded an amyloid nucleation score of -0.111 ± 0.8.

Consider LCLTLVRPPRSCMLATL, for which the amyloid nucleation score result was “inactive”.

Turning to LCMKYGVCVYVLFGWCKYTV, the amyloid nucleation score is -0.068 ± 0.79.

For the substance LCPVLYT, the amyloid nucleation score result is “inactive”.

Consider LCRMCIANCLMSCWESSYQV, for which the amyloid nucleation score stood at 3.13 ± 0.17.

Turning to LCRYTCSSLSVYLNNMILCG, the amyloid nucleation score was determined as 1.33 ± 0.13.

LCSFAMKLVCNRVMAFDIES: the amyloid nucleation score was 1.68 ± 0.19.

In turn, LCSKGYIMRSAGCRVDCSGV had an amyloid nucleation score of -0.58 ± 0.41.

LCSRSYGFRFYFSSGAQSVR registered an amyloid nucleation score of 0.541 ± 0.66.

Substance LCSVQLRLMVAHNSRHLACM had an amyloid nucleation score of 1.5 ± 0.25.

LCSVWEVFLYFF registered an amyloid nucleation score of 1.84 ± 0.11.

As for LCTIRFVNIFVCRMSKLNSH, the amyloid nucleation score was -1.4 ± 0.62.

For the substance LCVYNPNVKYVHPCWTASGG, the amyloid nucleation score was -0.529 ± 0.44.

The substance LCWMRFLDSCEEVHKSIHVF had an amyloid nucleation score of 0.38 ± 0.39.

As to LDPTVPGVIANVPNRRLARS, the amyloid nucleation score came to 5.87 ± 0.061.

LDSQMWNMSGQVRTRIGRSV: the amyloid nucleation score was 0.459 ± 0.43.

Take LEAMVTITT: the amyloid nucleation score came out at 0.273 ± 0.39.

In the case of LEHQSRSFMNFYTRPNKPLE, the amyloid nucleation score was -0.519 ± 1.

As for LERFSATYLKAWSGGVCVRV, the amyloid nucleation score is -0.067 ± 0.65.

On to LFASALFRMVSAFLEVAIL, for which the amyloid nucleation score was determined as 0.722 ± 0.43.

Consider LFCRSSC, for which the amyloid nucleation score result was “inactive”.

In the case of LFECMPYGLNAKDSCADSNV, the amyloid nucleation score is -0.303 ± 0.5.

Regarding LFFIIDNSQLSSSVDGLIVE, the amyloid nucleation score was -0.583 ± 1.

With LFGSKVHSSWRPSCLFTSAV, the amyloid nucleation score was found to be 0.377 ± 0.33.

Turning to LFGVSMSKADMSFWQDSGTR, the amyloid nucleation score was determined as 4.77 ± 0.092.

Regarding LFIEGNVSWGYACLHIRSVG, the amyloid nucleation score was determined as 0.039 ± 0.79.

As to LFKEDRDRCSC, the amyloid nucleation score turned out to be 0.99 ± 0.49.

Consider LFLGYMSLCVVYVLAFGRFE, for which the amyloid nucleation score was 3.79 ± 0.043.

On to LFLHVSGNAYGNNCRLSGPL, for which the amyloid nucleation score amounted to 0.369 ± 0.22.

The substance LFLRLVNQMVLLIKEWNVWG had an amyloid nucleation score of 0.196 ± 0.3.

LFMACLIGIFFHVETTRCRW showed an amyloid nucleation score of 2.5 ± 0.13.

As for LFNGTMY, the amyloid nucleation score result is “inactive”.

For LFNSAVLK, the amyloid nucleation score is -0.092 ± 0.33.

LFPSLMAVNVQRSDTGPSHG had an amyloid nucleation score of 1.2 ± 0.45.

Take LFQLGASTR: the amyloid nucleation score was determined as 0.147 ± 0.76.

Consider LFWELEM, for which the amyloid nucleation score came out at 4.7 ± 0.091.

Turning to LFYSTPDRCKRVDVSGISLM, the amyloid nucleation score is -0.325 ± 0.76.

The substance LGCNDSWEWDFVTPNGTFPF showed an amyloid nucleation score of -0.445 ± 0.48.

The values above are taken from the supplement of paper PMC12042874.
